Experimental data reported in the supplement of paper PMC10567573.
± gives the standard deviation.

Assay: protein stability index of a GFP-peptide fusion (GPS, HEK-293T) (PSI 1-6); higher = more stable
[1] = treatment: DMSO, c terminus: a fixed tail appended
[2] = treatment: MLN4924 1 uM, 8 h, c terminus: a fixed tail appended
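Also: 24-mer peptide tiles fused after GFP, lentivirally expressed, FACS-sorted into six equal bins by GFP/DsRed ratio, decoded by Illumina sequencing, PSI is the read-weighted mean bin number.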

Sequence	protein stability index [1]	protein stability index [2]	protein stability index (treatment: DMSO, c terminus: native)	protein stability index (treatment: MLN4924 1 uM, 8 h, c terminus: native)
IRYQSFNNQSDLEKEMQKMNPYKI [PRIM1]	3.07 ± 0.13	3.26 ± 0.28	–	–
ITPWTPSPSEKNSSFTWSVPSSGY [SMTNL2]	2.72 ± 0.3	2.75 ± 0.34	–	–
IVAVLCYINLLNYMDRFTVAGVLP [SPNS1]	3.23 ± 0.3	3.45 ± 0.14	–	–
IVETVCIVWFSFEFVVRCFACPSQ [KCNA4]	3.04 ± 0.21	2.66 ± 0.18	–	–
IVSQKQMSDRRENDMSPSNNVVPI [RAB11A]	4.34 ± 0.13	4.54 ± 0.14	–	–
IVWFSFEFVVRCFACPSQALFFKN [KCNA4]	2.91 ± 0.1	2.72 ± 0.81	–	–
IYGPGNLSTNNNTLRDHFKGISSH [SLC2A12]	2.95 ± 0.26	3 ± 0.14	–	–
IYRFLKLHPRGKNNFSPLHLAVDK [FEM1C]	2.31 ± 0.45	2.25 ± 0.28	–	–
KAQGHGAKGDNVYEFHLEFLDLVK [HACD3]	2.37 ± 0.2	2.46 ± 0.14	–	–
KDFANTIPGHGGIMDRFDCQYLMA [CDS2]	2.69 ± 0.37	2.8 ± 0.26	–	–
KDRMKSDHKRETERVVREALEKLR [ZMYND11]	3.18 ± 0.13	3.58 ± 0.32	–	–
KEAAEAIEAEGATAPLTELLHSRN [CTNNB1]	5.38 ± 0.28	5.28 ± 0.11	–	–
KELEDMNQKLFDLRGKFKRPPLRR [TNNI2]	3.86 ± 0.19	4.1 ± 0.42	–	–
KFQLNKYTGEIKISENLDYEETGF [PCDHGA10]	2.6 ± 0.099	3.63 ± 0.36	–	–
KGFGFVTMTNYDEAAMAIASLNGY [ELAVL3]	2.34 ± 0.13	2.37 ± 0.1	–	–
KGTFSDVTFKLDDGAISAHKPLLI [RHOBTB1]	2.47 ± 0.32	2.55 ± 0.33	–	–
KGVNRKLGRTGLYPSYKVREKIET [FUT8]	3.2 ± 0.31	3.4 ± 0.22	–	–
KHAVVNLINYQDDAELATRAIPEL [CTNNB1]	3.66 ± 0.23	3.64 ± 0.38	–	–
KIDLENTLEQEQEALVNRLWKRMD [CCDC6]	3.23 ± 0.41	3.78 ± 0.39	–	–
KILPWSPEKIGTRFLLYTNENPNN [PNLIPRP1]	2.56 ± 0.28	2.89 ± 0.28	–	–
KKEMNKSDLNTNNLLFKPPVESHI [KMT2E]	3.47 ± 0.39	4.12 ± 0.26	–	–
KKFELVPSPPTSPPWGLGPGAGDP [MYCL]	4.1 ± 0.28	4.07 ± 0.21	–	–

Sequence	protein stability index [1]	protein stability index [2]	protein stability index (treatment: DMSO, c terminus: native)	protein stability index (treatment: MLN4924 1 uM, 8 h, c terminus: native)
KKIYCRICMAQIAYSGNTSNLSYH [ZBED1]	2.19 ± 0.28	2.13 ± 0.3	–	–
KKRRMGTYSLVPKKKTKVLKQRTV [EHMT1]	3.27 ± 0.22	3.82 ± 0.4	–	–
KLHKSQLSQALNGLSDRAKEAKEF [TRIM9]	4.11 ± 0.15	4.17 ± 0.22	–	–
KLIKCDEIQVDSEEPVFEAVINWV [KLHL12]	2.15 ± 0.26	2.4 ± 0.36	–	–
KLLDELPIAKVMKDYLKHKFDDI [ASB7]	–	–	2.37 ± 0.28	2.66 ± 0.38
KLLNITADPMDWSPSNVQKWLLWT [SPDEF]	2.34 ± 0.46	2.22 ± 0.21	–	–
KLLSVIVWMLMLLLAVPNIILTNQ [P2RY14]	2.79 ± 0.47	3.21 ± 0.41	–	–
KMNFIKTYPAHQNRVSAIIFSLAT [WDFY1]	2.65 ± 0.51	2.5 ± 0.37	–	–
KMSNSFHGIRPPQLEQPEKMPVLK [RHOBTB3]	4.33 ± 0.16	4.34 ± 0.068	–	–
KNFSNNSNLIRHQRIHAAERLCMG [ZNF263]	2.86 ± 0.73	2.73 ± 0.35	–	–
KNKKKKLKKKQKRQAELLEKRLQE [SRPK2]	5.15 ± 0.42	5.06 ± 0.48	–	–
KNWVKELRQHGPPNIVVAIAGNKC [RAB22A]	2.29 ± 0.23	2.47 ± 0.21	–	–
KPGRKTNQLQYMQNVVVKTLWKHQ [BRD3]	2.25 ± 0.2	2.62 ± 0.21	–	–
KPHFESSTVKTETISFGSVSPGGV [EPB41L3]	4.08 ± 0.23	4.09 ± 0.11	–	–
KPLYVAFSFMYILVGLTVIGAFLN [KCNK9]	2.79 ± 0.67	2.97 ± 0.62	–	–
KPPMMPQAQPAIPRPNRLFLRQLR [C2CD2L]	3.22 ± 0.17	3.43 ± 0.42	–	–
KPQEIVQVEIFSTNPDLYPVRRID [IQUB]	2.82 ± 0.38	2.79 ± 0.4	–	–
KPYKCTLCGENFSHRSNLIRHQRI [ZNF263]	2.74 ± 0.51	3.43 ± 0.39	–	–
KQGQCTKGDKCKFSHDLTLERKCE [ZC3H15]	4.75 ± 0.15	4.6 ± 0.1	–	–
KQGYILNSDQTTCRIQDLCAMEDH [MATN2]	3.35 ± 0.27	3.17 ± 0.39	–	–
KQPPVTQSKTASDKSPSTVRDQGP [FBF1]	5.29 ± 0.17	5.27 ± 0.091	–	–
KQPPWEFLQVLEPGARGLWKPPDI [SPAG8]	2.45 ± 0.089	2.32 ± 0.23	–	–

Sequence	protein stability index [1]	protein stability index [2]	protein stability index (treatment: DMSO, c terminus: native)	protein stability index (treatment: MLN4924 1 uM, 8 h, c terminus: native)
KQRSVCTWGKNKPGIGAVILKRFC [FAN1]	1.99 ± 0.31	2.02 ± 0.15	–	–
KRALAEGAQIWCGEGVDKLSLPAR [ALDH8A1]	3.58 ± 0.3	3.71 ± 0.17	–	–
KRFDESMQVFAKLGTDPTHVMGLY [VPS39]	2.38 ± 0.25	2.69 ± 0.095	–	–
KRNNFYIKIRPGEFEQFESTIGFK [EPB41L3]	2.12 ± 0.52	2.46 ± 0.24	–	–
KRSSLPRPSSILPPRRGVSGDRDE [MAP2]	5.04 ± 0.24	5.16 ± 0.3	–	–
KRWQKNNWPKNSNGVTQKASAPTY [NANOGP8]	3.39 ± 0.17	3.47 ± 0.21	–	–
KSAHQTHSSWTPPNAQYWSQFHSV [DNAJC4]	2.74 ± 0.28	2.67 ± 0.18	–	–
KSKWDEEWDKNKSAFPFSDKLGEL [CLINT1]	3.82 ± 0.31	3.85 ± 0.21	–	–
KSLDGVTNDRTASQGQWGRAWEVD [DHCR7]	4.47 ± 0.11	4.465 ± 0.035	–	–
KSNGFFHGISIPEPEDMETLEEKF [CDKL4]	4.5 ± 0.14	4.56 ± 0.27	–	–
KTKEVQHNCQLHRISFCADDKTDK [GULP1]	4.66 ± 0.36	4.71 ± 0.21	–	–
KVEFPEARIYEETLNILLYEAQDG [KCTD10]	2.77 ± 0.15	2.94 ± 0.35	–	–
KVEFTEEEIKTWGTVFQELNKLYP [TPH1]	2.77 ± 0.24	2.91 ± 0.34	–	–
KVENLTLKNHFQSVLEQLELQEKQ [TAF7L]	3.54 ± 0.13	3.96 ± 0.094	–	–
KVLGRLRALSDTTEELTVIKSSLK [SLC2A12]	2.58 ± 0.25	2.76 ± 0.28	–	–
KVLHEDKQTREQLHSISDSVLFLQ [TRIM29]	3.46 ± 0.16	3.58 ± 0.27	–	–
KVPIAQDELALSLGYAASLEASVQ [C2CD2L]	3.65 ± 0.33	3.64 ± 0.34	–	–
KVTDHATTALLHYQLPQMPDVVVR [MED27]	3.07 ± 0.19	3.28 ± 0.24	–	–
KYWCVTATRVAPERLFGSAANVVS [ZBED1]	2.25 ± 0.34	2.38 ± 0.28	–	–
LAAAHGHSEVVEELVSADVIDLFD [RIPK4]	4.08 ± 0.37	4.5 ± 0.46	–	–
LAEALLHPFFAGLTPEERSFHTSR [CLK3]	2.29 ± 0.2	2.21 ± 0.23	–	–
